This note sets out measurements from article PMC6441110, “A novel 3-hydroxypropionic acid-inducible promoter regulated by the LysR-type transcriptional activator protein MmsR of Pseudomonas denitrificans” (Scientific Reports, 2019).

One data set deals with T1, MmsR (Pseudomonas denitrificans (nom. rej.), UniProt A0A9X7MYS1).
T1 construct: gene F1C79_09590; cell rows: native chromosomal MmsR; gene divergent from mmsA
T1 sequence (A0A9X7MYS1 1-298): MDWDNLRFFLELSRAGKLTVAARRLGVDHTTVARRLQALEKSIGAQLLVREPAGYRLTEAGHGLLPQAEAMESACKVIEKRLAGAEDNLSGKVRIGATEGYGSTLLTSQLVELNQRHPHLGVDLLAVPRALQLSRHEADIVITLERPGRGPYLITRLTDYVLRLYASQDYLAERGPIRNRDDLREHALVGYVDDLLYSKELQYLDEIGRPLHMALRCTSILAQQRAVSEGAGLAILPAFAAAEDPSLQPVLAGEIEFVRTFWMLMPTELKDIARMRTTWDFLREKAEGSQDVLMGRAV
The data set can be described thus: EMSA with mmsA promoter DNA, purified MmsR with and without inducer. As to conditions: 25 mM 3-HP; 40 nM DNA probe; pH 7.4, 750 mM KCl; effector of DNA binding (inducer). For orientation: In EMSA bound probe runs differently from free probe, usually more slowly.

Data set [1] concerns the target MmsR, LysR-type transcriptional activator protein of Pseudomonas denitrificans, tagged with six histidine residues at the C-terminus (Pseudomonas denitrificans ATCC 13867). The data set can be described thus: native gel or EMSA + SEC; native PAGE and/or gel filtration of purified His-tagged MmsR at the high concentration of 550 nM; monomer to dimer.
Data set [2] has as its target T2, MmsR (LysR-type transcriptional activator, C4-LysR) (Pseudomonas denitrificans ATCC 13867, UniProt A0A9X7MYS1 1-298).
T2 sequence: T1 sequence (A0A9X7MYS1 1-298)
The data set can be described thus: DNase I footprinting; no 3-HP; O1 more protected than O2; 50 mM Tris pH 7.4, 750 mM KCl (1X as printed), 0.5 mM DTT, 0.5 mM EDTA, room temperature; EMSA 40 nM DNA, 0-48.5 nM MmsR, 30 min; footprinting 230 nM DNA, 0-1.2 uM MmsR. The note with it: protein: recombinant; tags: C-terminal His6 (pET30b+); chain copies: 2; blunt.

Data set [3] deals with T2, MmsR (LysR-type transcriptional …). The data set can be described thus: EMSA; no 3-HP; stronger shift than F1M2; 50 mM Tris pH 7.4, 750 mM KCl (1X as printed), 0.5 mM DTT, 0.5 mM EDTA, room temperature; EMSA 40 nM DNA, 0-48.5 nM MmsR, 30 min; footprinting 230 nM DNA, 0-1.2 uM MmsR. The note with it: protein: recombinant; tags: C-terminal His6 (pET30b+); chain copies: 2; label: none (SYBR Green stain); blunt.

Data set [4] shares this target. The data set can be described thus: EMSA; no 3-HP; 50 mM Tris pH 7.4, 750 mM KCl (1X as printed), 0.5 mM DTT, 0.5 mM EDTA, room temperature; EMSA 40 nM DNA, 0-48.5 nM MmsR, 30 min; footprinting 230 nM DNA, 0-1.2 uM MmsR. As to conditions: protein: recombinant; tags: C-terminal His6 (pET30b+); chain copies: 2; label: none (SYBR Green stain); blunt.

Take `O=C(O)CCO` [compound 1, 3-hydroxypropionic acid]: the “EMSA with mmsA promoter DNA, purified MmsR with and without inducer” value at MmsR was 3-HP promotes the binding affinity between MmsR and the PmmsA promoter. The stoichiometry N is the number of molecules, sites or subunits per partner or assembly. “MmsR, LysR-type transcriptional activator protein of Pseudomonas denitrificans, tagged with six histidine residues at the C-terminus (natural protein)”: in data set [1], the stoichiometry N worked out at 2.

B1: 169 bp footprinting fragment (dsDNA)
DNA 1: CCGCAGGTTGTCCCAGTCCATGTCAGCCTCAGCGCACCTCGAATGTGCAAAAACGCAGACCATACTTGCACATCACCGCATTGAGTACATCAAAAATGCACTGTTAGGATCGATCCAGACAACAAAAAAGCCACAGGCTGGGAGAATCCCGATGACCGCAACTGCCCCG
DNA 2: CGGGGCAGTTGCGGTCATCGGGATTCTCCCAGCCTGTGGCTTTTTTGTTGTCTGGATCGATCCTAACAGTGCATTTTTGATGTACTCAATGCGGTGATGTGCAAGTATGGTCTGCGTTTTTGCACATTCGAGGTGCGCTGAGGCTGACATGGACTGGGACAACCTGCGG
As to B1, the binding result in data set [2] is recorded as “binds”.

B2: F12M (O1 intact, O2 mutant) (dsDNA)
DNA 1: GTCAGCCTCAGCGCACCTCGAATGTGCAAAAACGCAGACCATACTTGCACATCACCGCATTGAGTACATCAATCCTTGCTTGTTAGGATCGCGCCCAGGCACAAAAAAGCCACAGGCTGGGAGAATCCCG
DNA 2: CGGGATTCTCCCAGCCTGTGGCTTTTTTGTGCCTGGGCGCGATCCTAACAAGCAAGGATTGATGTACTCAATGCGGTGATGTGCAAGTATGGTCTGCGTTTTTGCACATTCGAGGTGCGCTGAGGCTGAC
As for B2, the binding result in data set [3] is on record as “binds”.

B3: F12 (O1 and O2 intact) (dsDNA)
DNA 1: GTCAGCCTCAGCGCACCTCGAATGTGCAAAAACGCAGACCATACTTGCACATCACCGCATTGAGTACATCAAAAATGCACTGTTAGGATCGATCCAGACAACAAAAAAGCCACAGGCTGGGAGAATCCCG
DNA 2: CGGGATTCTCCCAGCCTGTGGCTTTTTTGTTGTCTGGATCGATCCTAACAGTGCATTTTTGATGTACTCAATGCGGTGATGTGCAAGTATGGTCTGCGTTTTTGCACATTCGAGGTGCGCTGAGGCTGAC
With B3, the binding result in data set [4] was “binds”.
